Measurements reported in article PMC3400562 (2012).
Changes are numbered by the printed parent chain.

B1: 2F5 variant r4W3 (antibody, V domains shown)
VH: RITLKESGPPLVKPTQTLTLTCSFSGFSLSDFGVGVGWIRQPPGKALEWLAIIYSDDDKRYSPSLNTRLTITKDTSKNQVVLVMTRVSPVDTATYFCAHRRGPWFGWWRGPVNAMDVWGQGITVTISS
VL: ALQLTQSPSSLSASVGDRITITCRASQGVTSALAWYRQKPGSPPQLLIYDASSLESGVPSRFSGSGSGTEFTLTISTLRPEDFATYYCQQLHFYPHTFGGGTRVDVR
B2: 2F5 variant e4W (antibody, V domains shown)
VH: RITLKESGPPLVKPTQTLTLTCSFSGFSLSDFGVGVGWIRQPPGKALEWLAIIYSDDDKRYSPSLNTRLTITKDTSKNQVVLVMTRVSPVDTATYFCAHRRGPTTGGLFGWGGPIARGPVNAMDVWGQGITVTISS
VL: B1 VL
B3: 2F5 variant e2W (antibody, V domains shown)
VH: RITLKESGPPLVKPTQTLTLTCSFSGFSLSDFGVGVGWIRQPPGKALEWLAIIYSDDDKRYSPSLNTRLTITKDTSKNQVVLVMTRVSPVDTATYFCAHRRGPTTGLFGWGPIARGPVNAMDVWGQGITVTISS
VL: B1 VL
B4: 2F5 variant r4W2b (antibody, V domains shown)
VH: B1 VH with W104L, G106W, W108A
VL: B1 VL
B5: 2F5 variant r6W (antibody, V domains shown)
VH: RITLKESGPPLVKPTQTLTLTCSFSGFSLSDFGVGVGWIRQPPGKALEWLAIIYSDDDKRYSPSLNTRLTITKDTSKNQVVLVMTRVSPVDTATYFCAHRRGLFGWRGPVNAMDVWGQGITVTISS
VL: B1 VL
B6: 2F5 variant r2W (antibody, V domains shown)
VH: RITLKESGPPLVKPTQTLTLTCSFSGFSLSDFGVGVGWIRQPPGKALEWLAIIYSDDDKRYSPSLNTRLTITKDTSKNQVVLVMTRVSPVDTATYFCAHRRGPTLFGWIARGPVNAMDVWGQGITVTISS
VL: B1 VL
B7: 2F5 variant r4W2a (antibody, V domains shown)
VH: B1 VH with W104L
VL: B1 VL
B8: 2F5 variant r4W2c (antibody, V domains shown)
VH: B1 VH with W108A
VL: B1 VL
B9: 2F5 variant r4WY (antibody, V domains shown)
VH: B1 VH with W104L, W108Y
VL: B1 VL
B10: 2F5 variant r4W (antibody, V domains shown)
VH: B1 VH with W104L, W108A
VL: B1 VL
B11: 2F5 variant r4WY2 (antibody, V domains shown)
VH: B1 VH with W104Y, W108Y
VL: B1 VL

What follows are binders tested against wt MPER peptide (HIV-1).

Row | Binder | koff
1 | B1 | 0.00174 s⁻¹

Molecular target: wt MPER peptide (HIV-1)
Remark: another data set of the same source

Row | Binder | Kd
2 | B2 | 145 nM
3 | B3 | 131 nM
4 | B4 | 3.94 nM
5 | B5 | 353 nM
6 | B6 | 29.5 nM
7 | B7 | 2.57 nM
8 | B8 | 5.12 nM
9 | B9 | 2.77 nM
10 | B10 | 79.6 nM
11 | B11 | 5.49 nM

Molecular target: wt MPER peptide (HIV-1)
Remark: another data set of the same source

Row | Binder | koff
12 | B2 | 0.0105 s⁻¹
13 | B3 | 0.0105 s⁻¹
14 | B4 | 0.0034 s⁻¹
15 | B5 | 0.0224 s⁻¹
16 | B6 | 0.00435 s⁻¹
17 | B7 | 0.00106 s⁻¹
18 | B8 | 0.00112 s⁻¹
19 | B9 | 0.00055 s⁻¹
20 | B10 | 0.00681 s⁻¹
21 | B11 | 0.00193 s⁻¹

Molecular target: wt MPER peptide (HIV-1)
Remark: another data set of the same source

Row | Binder | Kd
22 | B1 | 2.2 nM
